The stoichiometry N is a count of units in the complex or per binding partner.

For this assay, the target named is Hsp104ΔM (yeast) (UniProt P31539). The assay can be described thus: SEC.

Take “Hsp104ΔM (from UniProt P31539 1-908) (natural protein)”: the stoichiometry N was 6.

The values are drawn from paper PMC2938849.
